From patent US20220089784A1 (University of California, published 2022)
Like-named read-outs stand apart in the source and are kept apart here.

T1: BoNT/F1 (proteolytic BoNT/F) (Clostridium botulinum, UniProt A7GBG3 1-1278)
T1 sequence: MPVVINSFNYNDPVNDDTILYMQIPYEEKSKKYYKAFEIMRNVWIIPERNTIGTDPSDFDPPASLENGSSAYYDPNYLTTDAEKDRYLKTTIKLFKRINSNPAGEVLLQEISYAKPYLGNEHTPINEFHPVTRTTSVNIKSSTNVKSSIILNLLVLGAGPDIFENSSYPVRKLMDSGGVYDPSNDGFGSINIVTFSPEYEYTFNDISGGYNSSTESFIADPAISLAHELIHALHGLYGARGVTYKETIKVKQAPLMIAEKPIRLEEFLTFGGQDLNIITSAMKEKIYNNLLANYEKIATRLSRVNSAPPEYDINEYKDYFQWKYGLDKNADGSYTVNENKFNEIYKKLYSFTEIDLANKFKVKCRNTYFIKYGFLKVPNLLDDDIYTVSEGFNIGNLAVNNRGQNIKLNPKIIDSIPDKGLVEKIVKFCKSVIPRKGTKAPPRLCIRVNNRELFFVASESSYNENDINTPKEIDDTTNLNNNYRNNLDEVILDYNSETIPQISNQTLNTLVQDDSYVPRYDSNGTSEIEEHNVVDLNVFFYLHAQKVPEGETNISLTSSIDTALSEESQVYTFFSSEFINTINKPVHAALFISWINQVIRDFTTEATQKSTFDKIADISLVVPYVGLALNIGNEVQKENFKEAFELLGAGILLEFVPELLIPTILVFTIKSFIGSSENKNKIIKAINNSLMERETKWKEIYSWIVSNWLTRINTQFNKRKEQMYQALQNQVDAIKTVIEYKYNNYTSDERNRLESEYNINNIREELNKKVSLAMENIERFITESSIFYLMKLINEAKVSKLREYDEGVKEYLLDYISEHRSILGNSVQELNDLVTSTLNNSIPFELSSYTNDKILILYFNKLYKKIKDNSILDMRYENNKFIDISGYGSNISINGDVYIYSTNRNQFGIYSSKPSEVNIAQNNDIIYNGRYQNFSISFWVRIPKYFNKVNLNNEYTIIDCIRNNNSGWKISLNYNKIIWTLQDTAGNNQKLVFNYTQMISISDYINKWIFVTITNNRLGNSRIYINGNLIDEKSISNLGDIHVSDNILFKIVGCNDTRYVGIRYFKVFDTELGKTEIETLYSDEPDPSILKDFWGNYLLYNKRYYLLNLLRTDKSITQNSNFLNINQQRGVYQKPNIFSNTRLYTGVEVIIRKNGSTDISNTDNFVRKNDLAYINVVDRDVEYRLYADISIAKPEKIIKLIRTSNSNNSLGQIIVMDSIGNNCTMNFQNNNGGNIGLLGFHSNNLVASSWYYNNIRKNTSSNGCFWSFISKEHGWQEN

T2: BoNT/C1 holotoxin (Clostridium botulinum, UniProt P18640 2-1291)
T2 sequence: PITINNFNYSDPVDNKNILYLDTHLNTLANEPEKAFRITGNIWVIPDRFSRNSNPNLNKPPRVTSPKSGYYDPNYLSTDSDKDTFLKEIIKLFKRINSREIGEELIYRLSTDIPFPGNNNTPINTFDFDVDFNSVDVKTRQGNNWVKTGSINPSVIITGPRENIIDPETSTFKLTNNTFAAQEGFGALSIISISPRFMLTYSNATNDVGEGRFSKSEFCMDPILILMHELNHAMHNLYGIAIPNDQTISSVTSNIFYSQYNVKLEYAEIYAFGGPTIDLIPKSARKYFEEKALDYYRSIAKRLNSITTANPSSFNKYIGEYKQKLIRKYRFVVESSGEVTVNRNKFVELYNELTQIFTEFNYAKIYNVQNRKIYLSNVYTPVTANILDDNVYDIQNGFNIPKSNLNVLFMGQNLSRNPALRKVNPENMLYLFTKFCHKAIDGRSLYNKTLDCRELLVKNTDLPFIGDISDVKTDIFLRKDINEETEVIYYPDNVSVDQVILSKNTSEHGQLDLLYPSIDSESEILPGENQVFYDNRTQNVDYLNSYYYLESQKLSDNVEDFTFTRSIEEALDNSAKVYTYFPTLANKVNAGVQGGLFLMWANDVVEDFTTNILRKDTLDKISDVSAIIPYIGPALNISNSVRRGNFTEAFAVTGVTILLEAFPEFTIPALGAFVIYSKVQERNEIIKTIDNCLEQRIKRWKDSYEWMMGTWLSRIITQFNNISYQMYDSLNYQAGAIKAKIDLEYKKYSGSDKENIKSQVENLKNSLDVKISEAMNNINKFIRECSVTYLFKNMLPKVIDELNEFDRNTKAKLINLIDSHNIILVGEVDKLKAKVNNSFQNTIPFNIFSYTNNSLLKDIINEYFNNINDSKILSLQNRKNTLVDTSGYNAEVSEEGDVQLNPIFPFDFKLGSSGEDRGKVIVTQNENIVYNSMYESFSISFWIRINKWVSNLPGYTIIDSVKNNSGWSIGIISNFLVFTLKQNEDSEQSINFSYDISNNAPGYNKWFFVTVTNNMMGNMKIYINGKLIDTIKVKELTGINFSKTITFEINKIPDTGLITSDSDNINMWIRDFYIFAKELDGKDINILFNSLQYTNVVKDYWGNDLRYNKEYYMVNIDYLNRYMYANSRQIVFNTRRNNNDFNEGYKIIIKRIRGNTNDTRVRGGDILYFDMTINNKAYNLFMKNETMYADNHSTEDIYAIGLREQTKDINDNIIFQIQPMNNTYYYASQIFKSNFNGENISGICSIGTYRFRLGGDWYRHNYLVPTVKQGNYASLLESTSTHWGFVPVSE

T3: BoNT/D (Clostridium botulinum, UniProt P19321 2-1276)
T3 sequence: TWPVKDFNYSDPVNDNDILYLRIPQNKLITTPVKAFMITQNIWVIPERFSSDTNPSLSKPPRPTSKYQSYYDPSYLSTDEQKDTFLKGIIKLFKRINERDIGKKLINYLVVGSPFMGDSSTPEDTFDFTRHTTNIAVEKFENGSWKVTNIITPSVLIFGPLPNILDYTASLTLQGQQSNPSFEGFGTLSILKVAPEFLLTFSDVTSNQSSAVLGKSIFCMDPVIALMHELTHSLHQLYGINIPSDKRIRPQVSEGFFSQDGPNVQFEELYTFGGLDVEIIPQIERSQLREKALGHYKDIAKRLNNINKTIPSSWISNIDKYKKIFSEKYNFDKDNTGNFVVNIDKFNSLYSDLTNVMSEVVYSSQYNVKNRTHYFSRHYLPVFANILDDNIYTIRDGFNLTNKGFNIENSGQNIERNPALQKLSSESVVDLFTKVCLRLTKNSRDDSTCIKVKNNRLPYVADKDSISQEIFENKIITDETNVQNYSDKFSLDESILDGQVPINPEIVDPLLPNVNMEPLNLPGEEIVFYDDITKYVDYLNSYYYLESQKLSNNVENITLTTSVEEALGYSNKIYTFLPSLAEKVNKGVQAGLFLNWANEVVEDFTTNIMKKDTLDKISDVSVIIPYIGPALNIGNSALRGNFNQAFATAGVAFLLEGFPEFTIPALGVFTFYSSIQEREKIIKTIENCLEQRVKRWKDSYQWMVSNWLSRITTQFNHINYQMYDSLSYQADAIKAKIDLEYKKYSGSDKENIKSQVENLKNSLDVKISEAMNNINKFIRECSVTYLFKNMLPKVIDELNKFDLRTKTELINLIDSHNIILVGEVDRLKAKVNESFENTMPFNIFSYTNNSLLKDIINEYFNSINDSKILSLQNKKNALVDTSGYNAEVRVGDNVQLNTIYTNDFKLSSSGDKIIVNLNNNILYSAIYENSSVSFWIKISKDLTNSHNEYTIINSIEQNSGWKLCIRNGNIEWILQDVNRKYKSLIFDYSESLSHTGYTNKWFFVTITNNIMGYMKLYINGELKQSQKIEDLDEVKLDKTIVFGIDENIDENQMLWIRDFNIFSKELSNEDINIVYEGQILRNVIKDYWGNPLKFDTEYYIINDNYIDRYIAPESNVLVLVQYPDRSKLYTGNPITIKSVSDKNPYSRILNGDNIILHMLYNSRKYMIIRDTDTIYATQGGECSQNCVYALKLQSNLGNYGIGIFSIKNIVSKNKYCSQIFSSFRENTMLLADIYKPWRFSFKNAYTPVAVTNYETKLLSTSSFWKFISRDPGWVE


Tests used:
Assay in all cases: yeast scFv FACS
[1] = biological target: T1, BoNT/F1 (proteolytic BoNT/F)
[2] = biological target: T1, BoNT/F1 (proteolytic BoNT/F); remark: listed apart in the source
BoNT/C1 holotoxin = biological target: T2, BoNT/C1 holotoxin
BoNT/D = biological target: T3, BoNT/D

| Binder | Kd [1] [µM] | Kd [2] [µM] | Kd (BoNT/C1 holotoxin) [µM] | binding result (BoNT/D) | binding result (BoNT/C1 holotoxin) |
| --- | --- | --- | --- | --- | --- |
| 30C8 scFv (scFv, V domains shown) VH: EVQLKQSGTELVKPRSSVKMSCKASGYTFTDYWIGWTKQRPGHGLEWIGHIYPGGGYTNYNEKFKGKATLTADISSSAAYMQFSSPTSEDSAIYYCARIIMVESGDWYFDVWGTGTTLTVSS VL: DIVLTQSPAIMSASLGEEITLTCSASSSVSYMHWYQQKSGTSPKLLIYSTSNLASGVPSRFSGSGSGTSYSLTISNMEAEDAATYYCQQWSSNPYTFGGGTKLELK | 0.0002 | 0.0002 | – | – | – |
| 4C9 scFv (scFv, V domains shown, human) VH: QVQLVESGAEVKKPGASVKVSCTASGYTFAGYYMDWVRQAPGQGLEWMGRINPKSGDPNYEQKFQGRVTLTRDKSINTVYMELSRLKSDDTAIYYCARSVSGGAFDLWGRGTLVTVSS VL: DIVMTQSPSSLSASVGDRVTITCRASQSINSYLNWYQQKPGKVPRLLIYSASSLQSGVPSRFSGSGSGTDFTLTISSLQPDDFATYYCQQYKRYSSFGQGTKVEIK | – | – | 0.0296 | no binding (tested: ~1 µM) | – |
| 8DC3 scFv (scFv, V domains shown, human) VH: QVQLVQSGGGLVKPGGSLRLSCAASGFTFSSHSMNWVRQAPGKGLEWVSSISSSSSYIYYADSVKGRFTISRDNSKNSLYLQLNSLRAEDTAVYYCARGDHDFRSGYYGMDVWGQGTMVTVSS VL: AELTQDPAVSVALGQTVRITCQGDSLRNYYASWYQQKPGQAPVLVIYGKNIRPSGIPDRFSGSSSGNTASLTITGAQAEDEADYYCNSRDSNGNHYVFGTGTKVTVL | – | – | – | binds | no binding (tested: ~1 µM) |
| 8DC2 scFv (scFv, V domains shown, human) VH: QVQLVQSGAEVKKPGSSVKVSCKTSGGTFRNFAISWVRQAPGQGLEWMGGIIPMFGKGHYAQNFQGRVTITADDSTTTAYMELSSLRYEDTAVYYCARGTRNGSLRDAFDIWGQGTTVTVSS VL: ASVLTQDPSASGSPGQSVTISCTGTSSDVGGYNYVSWYQQHPGKAPKLMIYDVSNRPSEVPDRFSGSKSGNTASLTVSGLQAEDEADYYCSSYAGSNKRVFGGGTKLTVL | – | – | – | no binding (tested: ~1 µM) | binds |
| 29B8 scFv (scFv, V domains shown) VH: EVQLQQSGAELVKPGASVKLSCTASGFNIKDYYMHWVKQRTEQGLEWIGRIDPEDGETKYAPKFQGKATITADTSSNTAYLQLSSLTSEDTAVYYCVSLLRSRTGYFDYWGQGTTLTVSS VL: ENVLTQSPAIMSASPGEKVTMTCSASSSVSYMHWYQQKSGTSPKRWIYDTSNLAPGVPARFSGSGSGTSYSLTISSMEAEDAASYFCHQWSSYPYTFGGGTKLEIK | 0.0358 | 0.0358 | – | – | – |
| 4C5 scFv (scFv, V domains shown, human) VH: QVQLVQSGADVKKPGASVRVSCKASGYTISTYAMSWVRQAPGQGLEWMGWISGYNGNTNYAQEFQGRVTMTRDTSTNTAYMELRSLRSDDTAFYYCARVKLTTMVRGGPFDYWGQGTLVTVSS VL: EIVLTQSPSSLSATVGDRVTITCRASQGIRNDLVWYQQKPGKAPKRLTYAASSLLSGVPSRFSGSGSGTDFTLTISSLQPEDFATYYCQQYNSYPPTFGGGTKLEIK | – | – | 0.000143 | no binding (tested: ~1 µM) | – |
| 4C8 scFv (scFv, V domains shown, human) VH: QVQLVESGGGLVQPGRSLRLSCAASGLTLSNYWMNWVRQAPGKGLEWVANIHQDGVEKYYVDSVKGRFTISRDNAKNSLYLQMSSLRAEDTAVYYCARGGKYSNSSAMYQWGQGTLVTVSS VL: DIVMTQSPSSLAASVGDRVTITCRASQSISGYLNWYQQKPGKAPNLLIYAASSLQSGVPSRFSGSGSGTDFTLTISSLQPDDFASYYCQQSYDIPRTFGQGTKVEIK | – | – | 0.0511 | no binding (tested: ~1 µM) | – |
| 28H4 scFv (scFv, V domains shown) VH: EVQLQQSGAELAKPGASVKLSCKASGYTFTSYWMHWVKQGPGQGLEWIGAIYPGNSDTGYNQKFKGKAKLTAVTSASTAYMELSSLTNEDSAVYYCTRHGYYIYALDYWGQGTSVTVSS VL: DIVLTQSPAIMSASPGEKVTMTCSASSSVSYMYWYQQKPGSSPKPWIYRTSNLASGVPVRFSGSGSGTSYSLTISSMEAEDAATYYCQQYHNFPPTFGGGTKLEIK | 0.02 | 0.02 | – | – | – |
